12 molecules from PMC3186816 (Molecular & Cellular Proteomics : MCP, 2011) can be followed below.

Broadly, the stoichiometry N is a count of units in the complex or per binding partner.

Series [1] addresses Tal-N (TP901-1 ORF47 N-terminal region, residues 1-386) (Lactococcus phage TP901-1). As to the kind of experiment: native MS.
For series [2] the target is unchanged. As to the kind of experiment: denaturing ESI-MS.
The target of series [3] is phage TP901-1 ORF46 (Dit) (Lactococcus phage TP901-1). The experiment in a line: native MS.
For series [4] the target is unchanged. The experiment in a line: denaturing ESI-MS.
The target is the same in series [5]. As to the kind of experiment: native MS. The source holds these as a separate data set.
The target is the same in series [6]. The experiment in a line: SEC-MALS.
The target in series [7] is phage TP901-1 ORF48 (BppU), as in the Tripod sample (Lactococcus phage TP901-1). As to the kind of experiment: native MS.
For series [8], the target named is phage TP901-1 ORF48 (BppU), as in the samples TP1 and Dit-BppU (Lactococcus phage TP901-1). As to the kind of experiment: native MS.
The target is the same in series [9]. The experiment in a line: native MS. This is another data set of the same source.
The target of series [10] is phage TP901-1 ORF49 (BppL), as in the Tripod sample (Lactococcus phage TP901-1). The experiment in a line: native MS.
Series [11] addresses phage TP901-1 ORF49 (BppL, the RBP), as in the sample TP1 (Lactococcus phage TP901-1). As to the kind of experiment: native MS.
Series [12] addresses phage p2 ORF15 (as in the sample SBP1) (Lactococcus phage p2) (UniProt D3WAD3). As to the kind of experiment: native MS.
For series [13], the target named is phage p2 ORF16 (Lactococcus phage p2). As to the kind of experiment: native MS.
Series [14] shares this target. The experiment in a line: native MS. This is another data set of the same source.
Series [15] addresses phage p2 baseplate subcomplex SBP1 [6xORF15 + 3xORF16] (Lactococcus phage p2) (UniProt D3WAD3). As to the kind of experiment: native MS.
Series [16] concerns the molecule itself. As to the kind of experiment: native MS.
Series [17] concerns the molecule itself. The experiment in a line: native MS. This is another data set of the same source.
Series [18] deals with the molecule itself. The experiment in a line: denaturing ESI-MS.
Series [19] deals with the molecule itself. The experiment in a line: native MS. The source holds these as a separate data set.
Series [20] has as its target T1, phage p2 baseplate [6xORF15 + 3xORF16 + 18xORF18] (Lactococcus phage p2).
T1 chain 1: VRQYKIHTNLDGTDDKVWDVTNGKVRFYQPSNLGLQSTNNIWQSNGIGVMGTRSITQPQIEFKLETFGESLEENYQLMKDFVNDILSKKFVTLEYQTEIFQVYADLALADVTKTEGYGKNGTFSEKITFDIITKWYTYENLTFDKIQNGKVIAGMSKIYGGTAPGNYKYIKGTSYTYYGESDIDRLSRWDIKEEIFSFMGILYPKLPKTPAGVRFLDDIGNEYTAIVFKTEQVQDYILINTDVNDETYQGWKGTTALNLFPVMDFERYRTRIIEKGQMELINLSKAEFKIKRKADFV
T1 chain 2: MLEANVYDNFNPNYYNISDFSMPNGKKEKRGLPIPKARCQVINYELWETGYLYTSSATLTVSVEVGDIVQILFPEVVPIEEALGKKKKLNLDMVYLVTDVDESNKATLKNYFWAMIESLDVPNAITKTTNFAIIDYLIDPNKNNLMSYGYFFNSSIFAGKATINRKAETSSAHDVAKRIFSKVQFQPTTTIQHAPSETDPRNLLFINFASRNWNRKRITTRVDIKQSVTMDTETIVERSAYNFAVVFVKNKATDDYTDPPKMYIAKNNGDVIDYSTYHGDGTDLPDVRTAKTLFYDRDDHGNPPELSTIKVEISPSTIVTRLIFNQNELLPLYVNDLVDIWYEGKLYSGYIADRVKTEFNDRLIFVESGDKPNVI
T1 chain 3: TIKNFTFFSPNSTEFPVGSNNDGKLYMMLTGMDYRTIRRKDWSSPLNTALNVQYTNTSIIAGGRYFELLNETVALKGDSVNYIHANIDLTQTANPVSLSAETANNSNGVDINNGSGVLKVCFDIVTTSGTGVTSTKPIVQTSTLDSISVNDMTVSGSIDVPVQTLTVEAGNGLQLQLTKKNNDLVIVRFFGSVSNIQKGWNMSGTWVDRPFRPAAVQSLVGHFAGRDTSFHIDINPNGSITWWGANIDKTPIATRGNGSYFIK
The experiment in a line: native MS.

“And” between values parts separate entries of the source, which are not always exact repeats. Equal entries are not always repeated. Where two headings read alike, the source gives them in different places.

For “Tal-N (TP901-1 ORF47 N-terminal region, residues 1-386) (domain or fragment)”, the stoichiometry N is 2 and 3 in series [1]; 2 and 3 in [2].

For the molecule “phage TP901-1 ORF46 (Dit) (natural protein)”, the stoichiometry N in series [3] was 6; in series [4] it was 2 and 3 and 6; in series [5], 6 and 12; in [6], 12. In turn, “phage TP901-1 ORF48 (BppU), as in the Tripod sample (natural protein)” returned a stoichiometry N in [7] of 3. For the molecule “phage TP901-1 ORF48 (BppU), as in the samples TP1 and Dit-BppU (natural protein)”, the stoichiometry N in [8] and in series [9] was 3 in each case. “phage TP901-1 ORF49 (BppL), as in the Tripod sample (natural protein)” yielded a stoichiometry N in [10] of 3.

As to “phage TP901-1 ORF49 (BppL, the RBP), as in the sample TP1 (natural protein)”, the stoichiometry N in series [11] was 3 and 6. For the molecule “phage p2 ORF15 (as in the sample SBP1) (from UniProt D3WAD3 2-298) (natural protein)”, the stoichiometry N in series [12] was 6. For the molecule phage p2 ORF16 (natural protein), the stoichiometry N is 2 and 3 in series [13]; 3 in series [14].

As to “phage p2 baseplate subcomplex SBP1 [6xORF15 + 3xORF16] (from UniProt D3WAD3 2-298)”, the stoichiometry N in [15] was 2.

B1: phage p2 ORF15 (as in the samples BP1, BP2 and SBP2) (natural protein, Lactococcus phage p2)
chain: T1 chain 1
Regarding B1, in [16], the “stoichiometry N” value turned out to be 6.

B2: phage p2 ORF18 (receptor-binding protein) (natural protein, Lactococcus phage p2)
chain: T1 chain 3
Regarding B2, the results for the “stoichiometry N” value in series [17], in series [18] and in [19] were 3, 2 and 3, respectively.

B3: VHH5 neutralizing llama antibody fragment (VHH)
VHH: QVQLQESGGGLVQAGGSLRLSCTASRRTGSNWCMGWFRQLAGKEPELVVALNFDYDMTYYADSVKGRFTVSRDSGKNTVYLQMNSLKPEDTAIYYCAARSGGFSSNRELYDGWGQGTQVTVSS
On to B3, for which, in series [20], the “stoichiometry N” value came out at 18.
